Key:
[1] = molecular target: T1, SARS-CoV-2 nucleocapsid protein (SARS-CoV-2, UniProt P0DTC9 1-419); test: ELISA on recombinant protein
T1 construct: also called N protein

[2] = molecular target: T2, SARS-CoV-2 spike S2 subunit (SARS-CoV-2, UniProt P0DTC2 686-1213); test: ELISA
T2 construct: domain: S2 subunit

SARS spike S1 subunit = molecular target: T3, SARS spike S1 subunit (severe acute respiratory syndrome …, UniProt P59594 14-667); test: ELISA
T3 construct: domain: S1 subunit

[3] = molecular target: T4, MERS spike extracellular domain (Middle East respiratory syndrome …, UniProt K9N5Q8 18-1296); test: ELISA
T4 construct: extracellular domain

[4] = molecular target: T5, Human coronavirus OC43 spike extracellular domain (human coronavirus OC43, UniProt P36334 14-1297); test: ELISA
T5 construct: extracellular domain

B1: EW 1A (antibody, V domains shown)
VH: EVQLVESGGGVVQPGSSLRLSCETSGFTFSGHAMHWVRQAPGKGLEWLAQIWFDGSEKYYADSVKGRFTISRDNSKKILYMQMNSLRVQDTAVYYCARDGQHLAPFAMDVWGQGTMVTVSS
VL: QSVLTQPASVSGSPGQSITISCTGTSSDVGASNRVSWYQHSPGEAPKLIIYQVTVRPSGVSDRFSGSKSGNTASLTISGLRTEDEAEYYCNSFVSGDSWVFGGGTKVTVL
binding result [1]: binds

B2: EZ 11A (antibody, V domains shown)
VH: EVQLVESGGGLVQPGGSLRLSCAASGFTFSSYWMSWVRQAPGKGLEWVANIKQDGSEKYYVDSVKGRFTISRDNAKNSLYLQMNSLRAEDTAVYYCARDDYSGSYYWEFDYWGQGTLVTVSS
VL: QPVLTQSPSASASLGASVKLTCTLSSGHSSYAIAWHQQQPEKGPRYLMKLNSDGSHSKGDGIPDRFSGSSSGAERYLTISSLQSEDEADYYCQTWGTGIWVFGGGTKLTVL
binding result [1]: binds

B3: FD 5B (antibody, V domains shown)
VH: not shown
VL: QSVLTQPPSASGSPGQSVTISCTGTSSDAGGYNYVSWYQQHPGKAPKLMIYEVSKRPSGVPDRFSGSKSGNTASLTVSGLQAEDEADYYCSSYAGSNNPFVFGTGTKVTVL
binding result [1]: binds

B4: EZ 9A (antibody, V domains shown)
VH: EVQLVESGGGLVQPGESLRVSCAASGFTFSNYWMHWVRQVPGKGPVWVSIINTDGSITRYVDSVRGRFTISRDNAKNTVHLQMNSLTAEDTAIYYCARDVNRYPDYWGQGTLVTVSS
VL: QSALTQPASVSGSPGQSITISCTGTYSDVGYYNYVSWYQQQPGKAPKVIIHGDINRPFGVSNRFSGSKSGNTASLTISGLQAEDEADYFCCSYVNNGAWVFGGGTKLTVL
binding result [1]: binds

B5: EY 12B (antibody, V domains shown)
VH: EVQLVESGGDLVQPGRSLRLSCAASGFTFDYFAMHWVRQVPGKGLEWVSGIRWNSETIGYADSVKGRFTISRDNAKKSLYLEMNSLRSEDTAFYYCAKGRSGYGHTAFDVWGQGTMVTVSS
VL: QSALTQPPSVSGAPGQRVTISCTGSSSNIGANYDVHWYQRLPGTAPKLLIYDNNNRPSGVPDRFSGSKSGTSASLAIAGLQAEDEADYYCQSYDSSLSASVFGGGTKLTVL
binding result [1]: binds

B6: EY 9C (antibody, V domains shown)
VH: EVQLVESGGGLVKPGGSLRLSCAASEFTFSSYTLNWVRQAPGKGLEWVSSISTSSAYIYYADSVKGRFTISRDNAKKSLSLQMNSLTAEDTAVYYCATWGGAPFDYWGQGTMVTVS
VL: QSVLTQPASVSGSPGRSITISCTETSSDVGTYNLVSWYQQHPGKAPKLMIFDDNKRPSGVSNRFSGSKSGNTASLTISGLQAEDEADYYCCSYAGGRTFNVLFGGGTKLTVL
binding result [1]: binds

B7: EY 12A (antibody, V domains shown)
VH: EVQLVESGPGLVKPSQTLSLTCAVSGGSISSGGYYWSWIRQPPGKGLELIGYTDYTGKTLYNPSLKSRLTISVDTSKNQFSLKLRSVTAADTAVYYCARGMTQDDILTGFNRPHWYFDLWGRGSLVTVSS
VL: QSVLTQPPSVSGAPGQRVTISCTGSSSNIGAGYDVHWYQQLPGTAPKVVIYRNMNRPSGVPDRFSGSKSGTSASLAITGLQAEDEADYYCQSFDSSLSDFVVFGGGTKLTVL
binding result [1]: binds

B8: EW 9A (antibody, V domains shown)
VH: EVQLLESGGGVVQPGRSLRLSCAASGFTFSSYGMHWVRQAPGKGLEWVAVIWYDGSNKYYADSVKGRFTISRDNSKNTLYLQMNSLRAEDTAVYYCAKDMWALYDILTGYYTPYYYYGMDVWGQGTTVTVSS
VL: SYELTQPPSVSVSPGQTARITCSADALPKQYAYWYQQKPGQAPVLVIYKDSERPSGIPERFSGSSSGTTVTLTISGVQAEDEADYYCQSADSSGTYWVFGGGTKLTVL
binding result [1]: binds

B9: EZ 7A (antibody, V domains shown)
VH: EVQLVESGAEVKKPGESLKISCKGSGYSFTSYWIGWVRQMPGKGLEWMGIIYPGDSDTRYSPSFQGQVTISADKSISTAYLQWSSLKASDTAMYYCARGWVYRGFPYYGMDVWGQGTMVTVSS
VL: QSALTQPRSVSGSPGQSVTISCTGTSSDVGGYNYVSWYQQHPGKAPKLMIYDVSKRPSGVPDRFSGSKSGNTASLTISGLQAEDEADYYCCSYAGSYTLVFGGGTKLTVL
binding result [2]: no binding
binding result (SARS spike S1 subunit): binds
binding result [3]: binds

B10: EZ 8C (antibody, V domains shown)
VH: EVQLVESGGGLVKPGGSLRLSCAASGFTFSSYTMNWVRQAPGKGLEWVSSFIANSDYKFYADSVKGRFTISRDNAKSSLYLQMNSLRAEDTAVYYCARELTSYGSHDAFDIWGQGTMVTVSS
VL: QSALTQPASVSGSPGQSITISCTGTSSDVGGYNYVSWYQQHPGKAPKLLIYEVTNRPSGVSDRFSGSKSANVASLTISGLQAEDEADYYCSSYTTTDSVVFGGGTKLTVL
binding result [1]: binds

B11: FD 4C (antibody, V domains shown)
VH: EVQLVESGPGLVKPSQTLSLTCTVSGGSISSGGYYWSWIRQHPGKGLEWIGYIYYSGSTYYNPSLKSRVTISVDTSKNQFSLKLSSVTAADTAVYYCARVRSSSSWYFDYWGQGTLVTVSS
VL: QSVLTQPASVSGSPGQSITISCTGTSSDVGGYNYVSWYQQHPGKAPKLMIYDVSKRPSGVSNRFSGSKSGNTASLTISGLQAEDEADYYCSSYTSKWVFGGGTKLTVL
binding result [1]: binds

B12: FM 7B (antibody, V domains shown)
VH: EVQLVQSGAEVKKPGASVKVSCKASGYTFTSYAMHWVRQAPGQRLEWMGWINTGNGNTKYSQKFQGRVTITRDTSASTAYMELSSLRSEDTAVYYCARDPTYCSSTSCYPFSWFDPWGQGTLVTVSS
VL: NFMLTQPPSVSVAPGQTARITCGGNNIGSKSVHWYQQKPGQAPVLVVYDDSDRPSGIPERFSGSNSGNTATLTISRVEAGDEADYYCQVWDSTGDHSWVFGGGTKLTVL
binding result [2]: no binding
binding result (SARS spike S1 subunit): binds
binding result [3]: no binding
binding result [4]: no binding

B13: EW 10C (antibody, V domains shown)
VH: EVQLVESGGGLVQPGGSLRLSCAASGFTFNKYKMTWVRQAPGKGLEWVANIKEDGSEKNYVDSVKGRFTISRDNARNSVYMHLNNLRVEDTAVYYCARGRTLGDWGQGTTVTVSS
VL: AIRMTQSPLSLPVTLGQPASISCRSSQSLVHSDGNTYLNWFQQRPGQSPRRLIYKVSNRDSGAPDRFSGSGSGTDFTLKISRVEAEDVGVYYCMQGTHWPPITFGPGTKVDIK
binding result [1]: binds

B14: FI 4A (antibody, V domains shown)
VH: EVQLVESGGGLVKPGGSLRLSCAASGFTFSRFSMNWVRQAPGKGLEWVSSISSSGSYIYFADSVKGRFTISRDNAKNSLYLQMNSLRAEDTAIYYCATYLFGDSHTYWGQGTLVTVSS
VL: QSVLTQPHSVSESPGKTVTISCTGSSGSIASNYVQWYQQRPGSAPTTVIYEDNQRPSGVPDRFSGSIDSSSNSASLTISGLKTEDEADYYCQSYDSSNLHWVFGGGTKLTVL
binding result [2]: no binding
binding result (SARS spike S1 subunit): no binding
binding result [3]: no binding
binding result [4]: no binding

B15: FJ 10B (antibody, V domains shown)
VH: QVQLVQSGAEVKKPGESLRISCKGSGYSFTSYWISWVRQMPGKGLEWMGRIDPSDSYTNYSPSFQGHVTISADKSISTAYLQWSSLKASDTAMYYCARLDPRYGPDYYGMDVWGQGTTVTVSS
VL: AIRMTQSPSSLSASVGDRVTITCRASQSISSYLNWYQQKPGKAPKLLIHAASSLQSGVPSRFSGSGSGTDFTLTMSSLQPEDFATYYCQQSYSTPLTFGGGTKVEIR
binding result [2]: no binding
binding result (SARS spike S1 subunit): binds
binding result [3]: no binding
binding result [4]: no binding

B16: FN 12A (antibody, V domains shown)
VH: QVQLVQSGAEVKKPGSSVKVSCKASGGTFSSYAISWVRQAPGQGLEWMGRIIPILGIANYAQKFQGRVTITADKSTSTAYMELSSLRSEDTAVYYCARSGCSSTSCPSNLYYYYYGMDVWGQGTTVTVSS
VL: QSVLTQPPSVSAAPGQKVTISCSGSSSNIGNNYVSWYQQLPGTAPKLLIYDNNKRPSGIPDRFSGSKSGTSATLGITGLQTGDEADYYCGTWDSSLSALVFGGGTKLTVL
binding result [2]: no binding
binding result (SARS spike S1 subunit): binds
binding result [3]: binds
binding result [4]: binds

B17: EZ 11C (antibody, V domains shown)
VH: EVQLVESGAEVKKPGASVKVSCKVSGYTLTELSMHWVRQAPGKGLEWMGGFDPEDGETIYAQKFQGRVTMTEDTSTDTAYMELSSLRSEDTAVYYCATTTVTTPTANWFDPWGQGTLVTVSS
VL: QSALTQPPSVSAAPGQKVTISCSGSSSNIGNNYVSWYQQLPGTAPKLLIYENNKRPSGIPDRFSGSKSGTSATLGITGLQTGDEADYYCGTWDSSLRQVVFGGGTKLTVL
binding result [1]: binds

B18: EZ 9C (antibody, V domains shown)
VH: EVQLVESGGGLVQPGGSLRLSCSASGFTLNGYAMHWVRQAPGKGLEYVSSLSNRGDNTRYAESVKGRFLISRDIAKDTLYLQMSSLRPEDTAVYYCGKGLLSASGGLPIDDWGQGTLVTVSS
VL: QSVLTQPPSVSAAPGQKVTISCSGSSSNIGNNYVSWYQQFPGTAPKLLIYDNNKRPSGIPDRFSGSKSGTSATLGITGLQTGDEAAYYCATWDSSLSAGVFGGGAKLTVL
binding result [1]: binds

B19: EW 5A (antibody, V domains shown)
VH: EVQLVESGGGLVQPGGSLRLSCSVSGFPFGTYAMHWVRQAPGKGLDYVSAINNDGSITYYADSVRGRFTVSRDNSENTLYLRLSGLRPDDTAIYYCVKDRGSVIRDFDVWGRGTLVTVSS
VL: QTVVTQEPSLTVSPGGTVTLTCASSTGTVTSDYYPNWFQQKPGQAPRPLIFGTAYRHSWTPARFSGSLLGGKAALTVSDVQPEDEADYYCLLYCGGGQLFGGGTKLTVL
binding result [1]: binds

B20: EZ 9B (antibody, V domains shown)
VH: not shown
VL: SYELTQPPSVSVAPGQTARITCGGNNIGSKSVHWYQQKPGQAPVLVVYDDSDRPSGIPERFSGSNSGNTATLTISRVEAGDEADYYCQVWDSSSDHPSWVFGGGTKLTVL
binding result [1]: binds
